Assay results: patent US20220119507A1 (OHEALTH BIOPHARMACEUTICAL SUZHOU, published 2022)

Key:
[1] = target: PTX3 recombinant protein (undenatured amino acid sequence listed as SEQ ID NO:14) (human, UniProt P26022 19-381); test: ELISA, PTX3 (SEQ ID NO:14) coated at 10 ug/mL, antibody 0.01 to 1000 ng/mL (FIG. 2)
Experimental: Firstly, 10 μg/mL of PTX3 recombinant protein (representing a undenatured amino acid sequence listed as SEQ ID NO:14, dissolved in pH 7.2 PBS) was coated onto each well of a 96-well cell culture plate (Product No. 9018, Corning Costar), and reacted at 4° C. overnight. Next, the blocking solution (containing 3% BSA in PBS) was added into wells, and blocked for 1 hour under room temperature (i.e. 4° C. to 40° C.). After removing the blocking solution, each well was rinsed with PBS, and then reacted with a primary antibody for 1 hour under room temperature (i.e. 4° C. to 40° C.), in which the primary antibody was PTX3 mAb of EXAMPLE 1 serially diluted in a concentration range of 0.01 ng/mL to 1000 ng/mL. And then, each well was rinsed several times with PBST (i.e. PBS with Tween 20) for removing unconjugated PTX3 mAb, and reacted with secondary antibody under room temperature (i.e. 4° C. to 40° C.), in which the secondary antibody was anti-mouse IgG-HRP. Afterward, TMB was added into each well for reaction over a time period, and then added with 0.1 M of H₂SO₄ solution for 10 minutes to stop the reaction. Subsequently, the absorbance at 450 nm of each well was measured by commercially available ELISA reader, and the results were shown in FIG. 2. Each value was obtained in quadruplicate. […]

[2] = target: T1, fragment of PTX3 recombinant protein listed as SEQ ID NO:6 (human); test: hybridoma screening
T1 peptide: ATDVLNKTI

[3] = target: T2, fragment of PTX3 recombinant protein listed as SEQ ID NO:9 (human); test: hybridoma screening
T2 peptide: LFSYGTKRN

[4] = target: T3, RI37, fragment of PTX3 recombinant protein listed as SEQ ID NO:12 (200th to 236th amino acid residues) (human); test: hybridoma screening
T3 peptide: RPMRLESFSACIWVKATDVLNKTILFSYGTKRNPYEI

[5] = target: T4, amino acid sequence listed as SEQ ID NO:11 (203th to 217th amino acid residues of PTX3 recombinant protein) (human); test: hybridoma screening
T4 peptide: RLESFSACIWVKATD

[6] = target: T5, fragment of PTX3 recombinant protein listed as SEQ ID NO:1 (human); test: hybridoma screening
T5 peptide: RPMRLESFS

[7] = target: T6, fragment of PTX3 recombinant protein listed as SEQ ID NO:7 (human); test: hybridoma screening
T6 peptide: VLNKTILFS

[8] = target: T7, fragment of PTX3 recombinant protein listed as SEQ ID NO:2 (human); test: hybridoma screening
T7 peptide: RLESFSACI

[9] = target: T8, fragment of PTX3 recombinant protein listed as SEQ ID NO:10 (human); test: hybridoma screening
T8 peptide: YGTKRNPYEI

[10] = target: T9, fragment of PTX3 recombinant protein listed as SEQ ID NO:8 (human); test: hybridoma screening
T9 peptide: KTILFSYGT

[11] = target: T10, fragment of PTX3 recombinant protein listed as SEQ ID NO:4 (human); test: ELISA on coated fragments SEQ ID NOs:1 to 10 (FIG. 4)
T10 peptide: ACIWVKATD

[12] = target: T11, fragment of PTX3 recombinant protein listed as SEQ ID NO:5 (human); test: as above
T11 peptide: WVKATDVLN

[13] = target: T12, fragment of PTX3 recombinant protein listed as SEQ ID NO:3 (human); test: as above
T12 peptide: SFSACIWVK

Chain of PTX3 recombinant protein (undenatured amino acid sequence listed as SEQ ID NO:14) (P26022 19-381 limits assumed): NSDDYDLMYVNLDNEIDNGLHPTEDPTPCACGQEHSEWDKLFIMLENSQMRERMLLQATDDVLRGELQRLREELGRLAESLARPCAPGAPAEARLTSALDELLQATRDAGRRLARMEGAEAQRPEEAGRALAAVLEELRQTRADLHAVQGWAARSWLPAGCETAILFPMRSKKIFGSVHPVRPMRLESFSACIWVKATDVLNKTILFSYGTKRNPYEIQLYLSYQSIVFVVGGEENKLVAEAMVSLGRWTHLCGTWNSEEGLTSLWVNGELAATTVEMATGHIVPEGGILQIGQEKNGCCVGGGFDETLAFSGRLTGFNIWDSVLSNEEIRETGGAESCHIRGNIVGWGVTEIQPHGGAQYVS

B1: PTX3 monoclonal antibody of EXAMPLE 1 (antibody, V domains shown)
VH: EVQLQQSGAELVKPGASVKLSCTASDFNIKHTYLHWVLQRPEQGLEWIGRIDPANGDTKYDPKFQGKATITADTSSNTAYLHLSSLTSEDTAVYYCARVTTVVGFDYWGQGTTLTVSS
VL: QIVLTQSPAIMSTSLGERVTMTCTASSSVISTYLNWYQQKPGSSPKLWIYSTSNLASGVPARFSGSGSGTSYSLTISSMEAEDAATYFCHQFQRSPLTFGAGTKLELKR
notes: also called PTX3 mAb
With B1 as the binder, how does the Kd [1] read?
Its Kd is 0.085 nM.

Does B1 bind [2]?
Result: binds

Does B1 bind [3]?
Result: binds

Does B1 bind [4]?
Result: binds

Does B1 bind [5]?
Result: binds

Does B1 bind [6]?
Result: binds

Does B1 bind [7]?
Result: binds

Does B1 bind [8]?
Result: binds

Does B1 bind [9]?
Result: binds

Does B1 bind [10]?
Result: binds

Does B1 bind [11]?
Result: binds

Does B1 bind [12]?
Result: binds

Does B1 bind [13]?
Result: binds
